The target of assay [1] is purified HLA-A*0201 molecules (human). The experiment in a line: competition with 125I-labelled standard probe peptide for purified HLA-A*0201; bound and free peptide separated by gel filtration. (In general: In gel filtration, larger molecules generally elute earlier.)
In the next assay the target is HLA-B*3501 (human). The assay can be described thus: competition with 125I-labelled standard peptide for purified HLA, gel filtration; relative binding.
The target in another assay is HLA-B*5301 (human). The assay is described as above.
For another assay, the target named is HLA-B*5101 (human). The assay is described as above.
The target of a further assay is HLA-B*0702 (human). Described as above.
In assay [2] the target is HLA-A*1101 (human). The experiment in a line: competition with a 125I-labeled standard probe peptide for purified HLA-A*1101, gel filtration.
Assay [3] addresses HLA-A*1101 (human). The assay can be described thus: inhibition of binding of a 125I-labelled standard peptide to purified HLA-A*1101, with gel filtration separation.
Assay [4] has as its target HLA-A*0301 (human). The assay can be described thus: competition of unlabeled peptide with 125I-labeled standard probe peptide for purified HLA-A*0301, gel filtration.
Assay [5] addresses HLA-A*1101 (human). The experiment in a line: competition with 125I-labeled standard probe peptide for purified HLA, gel filtration.
The target in assay [6] is HLA-A*0301 (human). Described as above.
Assay [7] deals with HLA-A*0301 (human). The experiment in a line: competition against a 125I-labeled standard probe peptide for purified HLA-A*0301, gel filtration; relative binding.
The target in assay [8] is HLA-A*1101 (human). The experiment in a line: competition with 125I-radiolabeled standard probe peptide for purified HLA-A*1101, gel filtration.
For assay [9], the target named is HLA-A*1101 (human). The experiment in a line: competition against a 125I-labelled standard probe peptide for purified HLA-A*1101, bound and free separated by gel filtration; value relative to the standard peptide.
The target in another assay is HLA-A*0101 (human). The experiment in a line: competition with 125I-labelled standard peptide for purified HLA-A*0101, bound and free separated by gel filtration.
Assay [10] addresses HLA-A*1101 (human). The assay can be described thus: competition of unlabeled peptide with 125I-labeled standard probe peptide for purified HLA-A*1101, gel filtration.

As for MVQWAYDNDI (modifications not checked) [HPV16 E1 360 peptide …], the binding affinity ratio (IC50 of the standard peptide / IC50 of the test peptide) in assay [1] was determined as 0.0001.

On to SPRLQEISL (modifications not checked) [HPV45 E1 110 … (B07 supermotif peptide, 9 amino acids)], for which the binding affinity ratio (IC50 of standard peptide / IC50 of test peptide) with HLA-B*3501 (human) stood at 0.0008; in the assay with HLA-B*5301 (human) it was 0.0002; with HLA-B*5101 (human), 0.0005; with HLA-B*0702 (human), 0.62.

As to AFRDLCIVY (modifications not checked) [HPV16 E6 peptide … (position 53, 9 amino acids; SEQ ID NO: 40120)], the relative binding ratio (IC50 of standard peptide / IC50 of test peptide) with HLA-A*1101 (human) [2] is 0.0001.

On to YNIVTFCCK (modifications not checked) [HPV16 E7 position 52 9-mer peptide … (SEQ ID NO: 40241)], for which, in the assay with HLA-A*1101 (human) [3], the relative binding ratio (IC50 of standard peptide / IC50 of test peptide) came to 0.0022.

With LILALLRYK (modifications not checked) [HPV45 E1 267-275 peptide … (SEQ ID NO: 37427)], in the assay with HLA-A*0301 (human) [4], the relative binding ratio (IC50 of the standard peptide / IC50 of the test peptide) is 0.27.

YVQAIVDKK (modifications not checked) [HPV18 E1 peptide … (position 19, 9 amino acids)]: the relative binding ratio (IC50 of standard peptide / IC50 of test peptide) (ratio to standard peptide) with HLA-A*1101 (human) [5] is 0.029; in the assay with HLA-A*0301 (human) [6] it was 0.0005. In the assay with HLA-A*0301 (human) [7], the binding affinity ratio (IC50 of the standard peptide / IC50 of the test peptide) stood at 0.0005. For the same molecule, the relative binding ratio (IC50 of standard peptide / IC50 of test peptide) with HLA-A*1101 (human) [8] amounted to 0.029.

For the molecule QVLHVLKRK (modifications not checked) [HPV18 E1 peptide … (position 80, 9 amino acids)], in the assay with HLA-A*1101 (human) [9], the relative binding ratio (IC50 of standard peptide / IC50 of test peptide) amounted to 0.002.

With ELRHYSDSVY (modifications not checked) [HPV18 E6 77 peptide …], in the assay with HLA-A*0101 (human), the relative binding ratio (IC50 of the standard peptide / IC50 of the test peptide) (ratio to standard peptide) worked out at 0.0037.

In the case of TMLCMCCK (modifications not checked) [HPV18 E7 60-67 peptide TMLCMCCK (SEQ ID NO: 41224)], the binding affinity ratio (IC50 of standard peptide / IC50 of test peptide) (ratio relative to standard peptide) with HLA-A*1101 (human) [10] was 0.024.

The values above are taken from patent US7026443.
